Assay results taken from the supplement of paper PMC12042874.
± gives the uncertainty stated by the source.

Experiment: amyloid nucleation score (Sup35N fusion, yeast selection) (log enrichment); library NNK2; higher = more nucleation; inactive = no reads after selection
Summary of the method: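 Plasmid inserts were Illumina-sequenced at input and output from psi-negative yeast expressing Sup35N fused to peptides of 20 random codons. The yeast were induced with 100 μM copper sulfate for 24 hours and grown 7 days at 30°C on medium lacking adenine and uracil, and sequences with under 100 input reads were excluded. Nucleation score is the DiMSum log enrichment of output over input reads, centred on the mode score of non-aggregating sequences.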

| Substance | amyloid nucleation score |
| --- | --- |
| IMRCGMLVASKFQGEGRNRT | 0.747 ± 0.43 |
| LAGNKYPWLS | -1.1 ± 0.53 |
| HWYVVDLVRVNYRALNSKWW | 0.194 ± 0.56 |
| NRRGANCVQS | -0.372 ± 0.39 |
| QMGCWLGLLVDSLYLSWLVT | -0.2 ± 0.43 |
| FISSSYSKEFSIYEFIDIFR | -0.539 ± 0.54 |
| QLNFYNQTQCVLGEVTTLN | -0.476 ± 0.36 |
| GRASMRACWVKMFYWFW | 0.981 ± 0.18 |
| HDYFTYT | 4.83 ± 0.059 |
| VIKCLVPSLIKSFRRHWFNT | -0.708 ± 0.79 |
| TDKIWSCHLGQTAWLSKSSG | 0.385 ± 0.33 |
| VYCVGNMSLGGLMDNCWYAG | 4.41 ± 0.062 |
| MSVLSMVFSGFDPMERFGEL | 0.294 ± 0.8 |
| LESHLVMRYS | -0.307 ± 0.48 |
| FKILFLAHRLTGLFKSSTGF | inactive |
| VESIKGVSCLYMFSYVMLLQ | -0.021 ± 0.37 |
| YNTISDWTSLEPYTLVRVLL | 1.91 ± 0.064 |
| ILGDNRLKPVTLSRNVALYY | -1.18 ± 0.78 |
| GAVGARLAINGSSRWMCSWY | 2.39 ± 0.1 |
| MIRTHLRRIYNS | -1.26 ± 0.37 |
| TFRYVWLSHPV | 3.63 ± 0.11 |
| RFVKTGYTYDLVGTVLHCLS | 5.97 ± 0.054 |

| Substance | amyloid nucleation score |
| --- | --- |
| WLLVYYISARVQQSADNKRW | -1.02 ± 1 |
| LNRDFMVHLSCGTWPSARKW | 0.067 ± 0.5 |
| RCNWTSNFFQYMYKNRPNNG | inactive |
| LVFRGAVCDITRAG | -0.682 ± 0.76 |
| WTLLNCRGSEVKIGRCTKMG | inactive |
| GGMLPYVVITFETFMPRCMN | -1.7 ± 0.75 |
| TLCRGTVLVAFGSPNITPSK | 3.89 ± 0.059 |
| HKGFEPVGRGYALCSTWLVV | 6.37 ± 0.074 |
| RYVNVCYNSSAWGLFGTTHI | inactive |
| PYQLRVSLTLMLISGSLDIY | 0.47 ± 0.5 |
| LLITR | -0.183 ± 1 |
| VYEKVVLGKDFVM | -0.28 ± 0.79 |
| IYREVYAL | inactive |
| NGCSFRGNCCDSGERNVVEV | 0.071 ± 0.6 |
| RVGFNNRNVVD | 0.266 ± 0.56 |
| WGRLGARCYRRILVPGRCLE | -0.756 ± 0.48 |
| HFVFI | -1.05 ± 1.1 |
| DGVCKFQELMSFPGKLYS | -0.447 ± 0.5 |
| IVQSSTAKHEDQVFGKKV | 1.24 ± 0.61 |
| FRLNMAYDEPVCLMGSVHNV | -1.38 ± 0.54 |
| WDLLRVM | 0.312 ± 0.8 |
| VYFSSSIADKFYNLISVRFI | 0.833 ± 0.8 |

| Substance | amyloid nucleation score |
| --- | --- |
| GFTLEAKDWSTG | 0.778 ± 0.43 |
| LRSWEGLSQAWRPCCVILHN | 0.48 ± 0.34 |
| RCKAAGCIHLVFFVCRDACC | 0.605 ± 0.66 |
| CWLAMN | -0.166 ± 0.8 |
| NCGLWNISMCPGDNLSSWDG | 7.46 ± 0.039 |
| IKKGRWAYGPSLVCKNAMRE | 0.799 ± 0.74 |
| YSAVKCFPYRLPLNYAQIGA | 0.358 ± 0.53 |
| GLRELS | -0.874 ± 0.55 |
| LFNLKMSPSQRKNGLPVLTI | inactive |
| FKGVCCMHNELASIDQWVGG | 0.192 ± 0.56 |
| ALWGF | -0.235 ± 0.38 |
| HIGCIRWFSCGGSPLSMNRL | 1.24 ± 0.2 |
| LEAFWKVKSCSVRTGVYGID | -0.555 ± 0.79 |
| FITDYTWTYLHAWLFIHQGV | -0.705 ± 1.1 |
| WCWLEYCCTIDSLIFLFEN | 4.09 ± 0.12 |
| DAKPVCIDGLFI | -0.839 ± 0.56 |
| NIEVWMFYSLMNMNEA | -0.509 ± 1.1 |
| IVQLWIWGVVPPFSDISHAL | 7.866 ± 0.05 |
| TVALNSWARHGEML | -0.375 ± 1.1 |
| CLQFLSRYRVWPSHSFWGEY | 3.68 ± 0.07 |
| TFFGWLALRIWARYRYE | inactive |
| MFTKDISGFLGVLGHVVVLG | -0.237 ± 0.63 |

| Substance | amyloid nucleation score |
| --- | --- |
| LFLGLFKLCNLASFMLWSWF | -0.627 ± 1 |
| TFAIIQYRNCLVTPISFKHF | 6.5 ± 0.081 |
| NDCGSNDRLSNTFFWFLLFG | 0.142 ± 0.65 |
| EAFYLSFFN | inactive |
| YAPGVLLSSMNDMAEYKGGI | -0.14 ± 0.28 |
| KVLLMTRT | -0.113 ± 0.45 |
| RYWTSIGCGR | 0.589 ± 0.32 |
| VSSPLAWKFLVNKICISDGG | inactive |
| LDSSMSTGNLRLCFFESICS | 0.232 ± 0.56 |
| LWMVFSGNALEKYSSDFCHC | -1.22 ± 0.78 |
| FYRGT | -0.974 ± 0.55 |
| EDKLFINLSRELVFGKIRPT | 6.138 ± 0.053 |
| FKSLLCLFAWRLVTFHVGE | -0.73 ± 1.1 |
| SMLSSMYFKFPL | 2.07 ± 0.16 |
| DKRLCLMVCNLLVYYMPF | -0.952 ± 0.63 |
| SIQCMISWQDRDNVEACKVE | 0.346 ± 0.21 |
| RGVVGLDSIRWPSFGAVMKF | -0.757 ± 0.48 |
| SVDHLDSVFDYFHVRYKFIS | -1.09 ± 1.1 |
| FVRSWSTCCDA | -0.176 ± 0.31 |
| VVNCCGWMVPVGPSHW | 10.32 ± 0.035 |
